Experimental data: the nanobody polyreactivity screen of Harvey et al. (2022)

Experiment: yeast display, Sf9 membrane polyspecificity reagent, FACS + sequencing; frameworks hold sequencing errors
Summary of the method: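 Synthetic nanobody libraries on Saccharomyces cerevisiae BJ5465 were galactose-induced for 36–48 hours, stained 1 hour at 4 °C with 10% biotinylated, detergent-solubilized Sf9 membrane reagent and enriched on streptavidin microbeads. FACS then separated cells into low and high (top ~1%) gates by anti-HA (expression) and streptavidin (reagent binding) fluorescence. Genes were colony-PCR amplified, MiSeq 2 × 250 sequenced and CDR-length filtered. A clone's polyreactivity label is that of its gate of origin.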

Sequence | polyreactivity (PSR sort gate)
QVQLVESGGGLVQAGGSLRLSCAASGRIFGGNAMGWYRQAPGKERELVAAITSGGTTNYADSVKGRFTISRDNAKNTVYLQMNSLKPEDTAVYYCAADFKPLYYDEYDYWGQGTQVTVSS | low polyreactivity
QVQLVESGGGLVQAGGSLRLSCAASGFTFDPYAMGWYREAPGKERELVAAISFSGGSTSYADSVKGRFTISRDNAKNSVYFQMNSLKPEDTAVYYCAAYSWLYEGYEYWGQGTQVTVSS | high polyreactivity
RVQLVESGGGLVQAGGSLRLSCAASGRTFVNYAMGWYRQAPGKEREFVAAITNGGRTNYADSVKGRFTISRDNAKNTVYLQMNSLQPEETEVYYCAARYRFGGIRRYNYWGQGTQVTVSS | high polyreactivity
QVQLVESGGGLVLEGGSLRLSCPASGRIFTWNAMGWYRHAPGKERELVASISRSGTSTYYADSVKGRFTISRDNAKNTVYLQMNSLKPEDTAVYYCAAKRYGYKMYYWGQGTQVTVSS | high polyreactivity
QVQLVESGGGLVQAGGSLRLSCAASGFTFEYYAMGWYRQARGKERELVASITNSGTRTYYADSVKGRFTISRDNAKNTVYLQMNSLKPEDTAVYYCAATPWNGRYSRFGYWGQGTQVTVSS | high polyreactivity
QVQLEESGGGLVQAGGSLRLSCAASGFTFRVYAMGWYRQAPGKERELVAAISSGGSTNYADSVKGRFTISRDNAKNTVYLQMNSLKPEDTAVYYCAARQRYYSERPQYSGLYYWGQGTQVTVSS | high polyreactivity
QVQPVESGGGLVQAGGSLRLSCAASGIIFPYYAMGWYRQEPGKERELVAAISTGGSTYYADSVKGRFTISRDNAKNTVYLQMNSLKPEDTAVYCCAAATSYGKSEYDYWGQGTQVTVSS | high polyreactivity
QVQLVESGGGLVQAGGSLRISCAASGSLFYRYAMGWYRQAPGKEREMVAAINDSGGGTYYADSVKGRFTISRDKAKNTVYLQMNSLKPEDTAVYYCAAATHNKHTARDDYWGQGTQVNVSS | low polyreactivity
QVQLVESGGGVVQAGGSLRLSCAASGRNFGHYTMGWYRQAPGIERELVARISQSGGSTRYADSVKGRFTISRDNAKNTVYLQMNSLKPEDTAVYYWATYRRHFFYFAIPGYSSAYEYSGQGTQVTVSS | high polyreactivity
QVQLVESGGGLVQAGGSLRLSCAASGYTFHGYSMGWYRKAPGKERELVAVITQRGGSTSYADSVKGRFTISRDNAKNTVYLQMNSLKPEDTAVYYCNASAWLVVARTRYGYWGQGTQVTVSS | low polyreactivity
QVQLVESGGGLVQAGGSLRLSCAASGIILSPYTMGWYRQAPGKERELVAGISRSGGTTYYADSVKGRFTISRDNAKNTVYLQMNSLKPEDTAVYYCAARKPGWGHEWWVEHYYYWGQGTQVTVSS | low polyreactivity
QVQLVESGGGLVQAGGSLRLSCAASGSTFARNAMGWYRQAPGKERELVAAISSGGTTNYADSVKGRFTISRDNAKNTVYLQMNSLKPEDTAVYYCNAGFRNVLTSGYLYDYWGQGTQVTVSS | low polyreactivity
QVQLVESGGGLVQAGGSLRLSCAASGFIFSHYTMGWYRQAPGKERELVAGISWSGGNTYYADSVKGRFTISRDNAKNTVYLQMISLKPEDTAVYYCNADWIGVPLAYDYWGQGTQVTVSS | low polyreactivity
QVQLVESGGGLVQAGGSLRLSCAASGSIFKIYAMGWYRQAPGKERELVARITRRGGRTNYADSVKGRFTISRDNAKNTVYLQMNSLKPEDTAVYYCASLGRRGGDYWGQGTQVTVAS | high polyreactivity
QVQLVESGGGLVQAGGSLRLSCAASGSNFTWYAMGWYRQAPGKERELVADIDWSGGSTYYADSVKGRFTISRDNAKNTVYLQMNSLKPEDTAVYYCNAVFLFYEYWGQGTQVTVSS | low polyreactivity
QVQLEESGGGLVQAGGSLRLSCAASGRTFDVYAMGWYRQAPGKEREFVAAINWSSSSTYYADSVKGRFTISRDNAKNTVYLQMNSLKPEDTAVYYCAARYKRYTRFDYWGQGTQVTVSS | high polyreactivity
QVKLVESGGGLVQAGGSLSLSCAATGIIFRFYSMGCYRQAPGKERELVAVITSRSDSTYYADSVKGRFTISRDNAKNTFYLQKNSLKPEDTAVYYCNARYPWYYRYSTYDYWGQGTQVTVSS | high polyreactivity
QVQLVESGGCLVQAGGSLRLSCAPSGFIFPYYAMGWYRPAPGQERALVAAITSSGGSTYYADSVKGRFTISRDNAKNTVYLQMNSLKPEETAVYYCNKYRRYVDGYEMDYWGQGTQVTVSS | high polyreactivity
QVHLVESGGGLVQAGGSLRLSCAASGNIIYWNGMGWYRKAPGKEREFVADITASGGSTYYADSVKGRFTISRDNAKNTVYLQMNSLIPEDTAVYYCAAQGVDSYYENDYWGQGTQVTVSS | high polyreactivity
QVQLVESGGGLVQAGGSLRLSCAATGLTIWHYVMGWYRQAPGKERELVATISSSGGSTFYADSVKGRFTISRDNAKNTVYLQMNSLKPEDTAVYYCNADQYSWRWRRKHDYWGQGTQVTVSS | high polyreactivity
QVQLVESGGGLVQAGGSLRLSCAASGRTFYKYALGWYRQAPGKERELVAAITSGGSTNYADSVKGRFTISRDNAKYTVYLQMNSLKPEDTAVYYCNASFEENFPFGDYDYWGQGTQVTGSS | high polyreactivity
QVQLVESGGGLLQAGGSLRLSCAASGFTIKYYAMGWYRPAPGKERELVAAIRGSGAGTYYADSVKGRFTISRDNAKNTVYLQMNSLKPEDTAVYYCNKRWTYQWDDYWGQGTQVTVSS | high polyreactivity

Sequence | polyreactivity (PSR sort gate)
QVQLVESGGGLVQAGGSLRLSCAASGSTFGPYAMGWYRQAPGKERELVADITVSDGSTYYADSVKGRFTISRDNAKNTVYLQMNSLKPEHTAVYYCAAEIYYSFGYWGQGTQVTVSS | low polyreactivity
QVQVVESGGGLVQAGGSLRLSCAASGGTFSPYDMGWYRQAPGKERELVASITRSGGSTYYADSVKGRFTISRGNSKNTVYLQMNSLKPEDTAVYYCAAQGYWTYWPYLLRLYDYWGQGTQVTVSS | low polyreactivity
QVQLVESGGGLGQAGGSLRLSCAASGFTFYYNAMGWYRQAPGKERELVATIRGTGSTNYADSVKGRFTISRDNAKNTVYLQMNSLKTEDTAVYYCDAPVDYQGDYWGQGTQVTVSS | low polyreactivity
QVQLVDSGGGLVQAGGSLRLSSAASGFIFQANAMGSSRQAPGKERELVAAIDDGDSTYADSVKGRFTISRDNAKNSVYLQMNSLKPEDTAVYYCATRRNRSYDYWGQGTQVTVSS | low polyreactivity
QVQLVESGGGLVQAGGSLRLSCAASGRTFYSYAMGWYRQAPGKEREFVAAISVRGVITYYADSVKGRFTISRDNAKNTVYLQMNSLKPEDTAVYDCAADWSGYYTYDYWGQGTQVTVSS | low polyreactivity
QVQLVESGGGLVQAGGSLRLSCAASGRTFYYNAMGWSRQATGKERELVAAISGRAGSTYYADSVKGRYTISRDNAKNTVYLQMNSLKPEDTAVYYCNAVRYKYTGRFGYWGQGTQVTVSS | high polyreactivity
QVQLVESGGGLVQAGGSLRLSCAASGRTIGVYAMGWYRQAPGKERELVAAISWSGGTTYYADSVKGRFTISRDNAKNTVYLQMNSLKPEDTAVYYCDADSYTEVDYWGQGTQVTVSS | low polyreactivity
QVQLVESGGGLVQSGGSLRLTCAASGYIFGYYTMGWYRQAPGKERELVATIRSGGSTYYADSVKGRFTISRDNAKNTVFLHMNSLKAEDTAVYYCAIRVRRISEYGYWGQGTQVTVSS | high polyreactivity
QVQLVESGGGLVQAGGSLRLSCAASGRIFLYAMGWYRQAPGKERELVAAINSGGSTNYADSVKGRFTISRDNAKNTVYLQMNSLKPEDTAVYYCAAEVLYWYRYYYWGQGTQVTVSS | low polyreactivity
QVQLVESGGGLVQAGGSLRLSCAASGRTFSKYAMGWYRQAPGKERELVASISSDGRTYYADSVKGRFTISRDNAKNTVYLQMNRLKPEDTAVYYCAAKEWYFPTWYTYYERDYWGQGTQVTVSS | high polyreactivity
QVQLVETGGGLVQAGGSLRLSCAASGSTFRYYAMGWYRQAPGTERELVAGISSNGGRTYYADSVKWRFTISRDNAKNTVYLQMNILKPEDTAVYYCNAGPYSRLYGDRDYDYWGQGTQVTVSS | high polyreactivity
QVQLVESGGGLVQAGGSLRLSCAASGITFTFYAMGWYRQAPGKERELVAAISRRGGSTYYADSVKGRFTISRDNAKNTVYLQMNSLKPEDTAVYYCAARGYRPMDYWGQGTQVTVSS | high polyreactivity
QVQLVESGGGLVQAGGSLRLSCAASGLIFYAYAMGWYRQAPGKERELVAAISGSGGNTYYADSVKGRFTISRDNAKNTVYLQMNSLKPEDTAVYYCAADYTAAYPDSMYYWGQGTQVTVSS | low polyreactivity
QVQLVESGGGLVQAGGSLRLSCAASGRTFGWYAMGWYRQAPGKERELVAAIRSSGGRTHYADSVKGRFTISRDNAKNTVYLQMNSLKPEDTAVYYCAARYSAAYYWGQGTQVTVSS | high polyreactivity
QVQLVESGGGLVQAGGSLRLSCSDSGFTFARYTMGWYRQPPGKESELVAGISRSTGRTYYADSVKGLFTISRDNAKNTVYLQMNSLKPEDTAVYYCAARATRSLSRSMDYWGQGTQVTVSS | high polyreactivity
QVQLVESGGGLVQAGGSLRLSCAASGITSYYYTMGWYRQAPGKERELVAAITSGGSTYYADSVKGRFTISRDNAKNSVYLQMNSLKPEDTAVYYCTADNPRYRGSKYGPYDDYNYWGQGTQVTVSS | low polyreactivity
QVQLVESGGGLVQAGGSLRLSCAASGSTFTYYAMGWYRQAPGKEREWVAAISGGGDTYYADSVKGRFTISRDNAKNTVYLQMTSLKPEDTAVYYCNARVWAKSPRGSQYNMYDYWGQGTQVTVSS | high polyreactivity
QVQLVESGAGLVEAGASLRLSCAASGSNFRINAMGLYRQAPGKERELVAAITASGGSTYADSVKGRFTISRDNAKNTVYLQMNSLKPEDTAVYDCAARYFPRHRYYFWGQVTQVTVSS | high polyreactivity
QVQLVESGGGLVQAGGSLRLSCAASGRIFVNYAMGWYRQAPGKERELVAAITSSGGSTYYADSVKGRFTISRDNAKNTVYLQMNSLKPEDTAVYYCAARWGRGLEFDYWGQGTQVTVSS | high polyreactivity
QVQLVESGGGLVQAGGSLRLRCAASGIIFTGYALGWYRQAPGKESELVAAISRSGGGTYYADSVKARFTISRDNAKNTVYLQINSLKPEDTAVYYCNRLRIAASYWQAYDYWGQGTQVTLSS | high polyreactivity
QVQLVESGGGLVQAGGSLRLSCAASGRIFVYYAMGWYRQAPGKERELVAAISSGGDRTYYADSVKGRFTISRDNAKNTVYLQMNCLKPEDTAVYYCAKVYSTVKRYHWVGSRYDYWGQGTQVTVSS | high polyreactivity
